One molecule from patent publication US12371456B2, “Proteins for the treatment of epithelial barrier function disorders” (Genevive, Inc., priority 2017, dated 2025) can be followed below.

The test system of experiment [1] is IL-23. The experiment in a line: IL-23 production by monocytes in co-culture TEER assay (Luminex). Format: cell-based, human. The note with it: pre-incubated 6 hours prior to HK E. coli; p=0.80; FIG. 2B. The method, then: Production of the pro-inflammatory cytokines TNF-α and IL-23 by monocytes was measured in the tissue culture supernatant from the basolateral chamber of the co-culture TEER assay performed in Example 2. Following TEER readings, the supernatants were centrifuged at 10,000 g for 5 minutes at 4° C. to remove cell debris. Luminex analysis was performed according to the manufacturer's instructions (Magpix instrument and xPonent software version 4.2; Luminex Corporation (Austin, TX)). Luminex analysis was performed to determine the pg/ml concentration of TNF-α and IL-23 produced by monocytes. Luminex analysis utilizes a bead-based system for quantification of multiple cytokines from a single sample. Like an ELISA, Luminex beads are coated with a capture antibody, and incubation with samples allows the target to bind to the capture antibody. Beads are washed and incubated with a fluorescently labeled detection antibody for quantification of bound target. Cytometric analysis is used to differentiate bead populations, which are loaded with differential fluorescent dyes, and to quantify cytokine levels by measuring detection antibody signal. TNF-α production in untreated cells and cells pre-incubated with SG-14 for 6 hours prior to HK E. coli treatment were normalized to pg/ml concentrations elicited by HK E. coli which was set to 1.0. […]

The test system of experiment [2] is DSS model of inflammatory bowel disease. As to the kind of experiment: DSS model: body weight. The note with it: 50 nmoles/kg i.p. b.i.d., 2.5% DSS; FIG. 8. Format: in vivo, C57BL/6 mice. The method, then: Eight-week old C57BL/6 mice were housed 5 animals were cage and given food and water ad libitum for 7 days. Following the 7-day acclimation period, treatments were initiated concurrently with addition of 2.5% DSS to the drinking water. […] The mice were treated with 2.5% dextran sodium sulfate (DSS) in their drinking water for 6 days. Treatments were continued with SG-14 or […]-GLP2 twice a day (b.i.d.) in the morning and evening (every 8 and 16 hr) with i.p. injections at 50 nmoles/kg. Fresh 2.5% DSS drinking water was prepared every 2 days. Body weight was measured daily from mice included in the DSS model described in this Example. Percent change from starting weight on day 0 was determined for each mouse. […] The graph in FIG. 8 represents data pooled from the single experiment (n=10).

The subject of experiment [3] is HCT8 enterocyte and HT29-MTX goblet cell lines. As to the kind of experiment: Oris Cell Migration assay (epithelial cell wound healing). The class given is cell-based, human. The note with it: 48 hours; SG-14 1 μg/ml, EGF 30 ng/ml, staurosporine 100 nM; FIG. 5. The text has this:
The 96 well Oris Cell Migration assay containing plugs preventing cell attachment in the center of each well was used according to the manufacturer's instructions (Platypus Technologies, Madison, WI). The migration assay plates were warmed to room temperature prior to use and plugs were removed from 100% confluence wells prior to cell addition. The HCT8 enterocyte and HT29-MTX goblet cell lines were used at a 9:1 ratio with a total of 5×10^4 total cells added per well (4.5×10^4 HCT8 cells and 0.5×10^4 HT29-MTX cells). Cells were incubated at 37° C.+5% CO2 for 24 hours. Plugs were then removed from all control and sample wells. Control wells included cells treated with the diluent vehicle as the blank, 30 ng/ml epidermal growth factor (EGF) as the positive control, and 100 nM staurosporine as the negative control, all diluted in cRPMI. Sample wells contained SG-14 protein at a concentration of 1 μg/ml diluted in cRPMI. 100% and 0% wells were cultured in cRPMI. […] The green fluorescent viability dye […] was added to all wells at a concentration of […] in PBS containing 0.9 mM CaCl2) and 0.5 mM MgCl2, incubated for 30 min at 37° C.+5% CO2, the dye was removed and cells were washed in PBS containing 0.9 mM CaCl2) and 0.5 mM MgCl2 and fluorescence was measured. […] Samples were normalized between 100% and 0% samples and values expressed as a percent growth.

In experiment [4] the test system is LPS binding protein (LBP). As to the kind of experiment: DSS model: LPS binding protein (LBP) in serum by ELISA. Format: in vivo, C57BL/6 mice. The note with it: 50 nmoles/kg i.p. b.i.d., 2.5% DSS; FIG. 7. The method, then: (§1) Eight-week old C57BL/6 mice were housed 5 animals were cage and given food and water ad libitum for 7 days. Following the 7-day acclimation period, treatments were initiated concurrently with addition of 2.5% DSS to the drinking water. […] The mice were treated with 2.5% dextran sodium sulfate (DSS) in their drinking water for 6 days. Treatments were continued with SG-14 or Gly2-GLP2 twice a day (b.i.d.) in the morning and evening (every 8 and 16 hr) with i.p. injections at 50 nmoles/kg. Fresh 2.5% DSS drinking water was prepared every 2 days.
SG-14 was also assessed for its effects on the levels of LPS binding protein (LBP) in the blood of the DSS animal with and without SG-14 administration. LPS binding protein (LBP), which has been linked to clinical disease activity in subjects with inflammatory bowel disease, was also measured by ELISA in the serum of mice tested in the DSS model described in Example 7. […] Results are shown in FIG. 7, and are presented as mean f SEM. The graph in FIG. 7 represents data pooled from the single experiment (n=10).
(In general: ELISA stands for enzyme-linked immunosorbent assay.)

Experiment [5] has as its system DSS model of inflammatory bowel disease. The experiment in a line: DSS model: colonic tissue histopathology score. The following applies: FIG. 12A. The class given is in vivo, C57BL/6 mice. The protocol: as §1
Colon tissue was collected from mice in the DSS model described in this Example 7. Tissues were fixed in 10% formalin, processed for paraffin embedding and sectioned. Tissue sections were stained with Hematoxylin and Eosin and scored for pathology by a pathologist specializing in gastrointestinal disease. The scoring system used multiple pathology readouts including inflammation, edema, transmural inflammation, mucosal hyperplasia, dysplasia, loss of mucosal architecture, the extent of tissue affected, and the extent of tissue affected by the most severe pathology. Each readout was scored on a scale of 0-4 and a total score was generated by totaling all readout values for each treatment. […] The graph in FIG. 12A and images in […] represent data from the single experiment (n=10).

B1: SG-14: Eubacterium eligens protein comprising SEQ ID NO:3; tested form expressed in E. coli, with exogenous GPLG at N-terminus and PHRD at C-terminus (protein)
chain: GCARNSTSTTTASGGETTITSAITKEDTDVTHADDAENYRVSITGDFTVTSDTSDGVTQSGSVYTITKAGEYTVTGLLSEGQLIVDAGNENEVTIVLNGTSITCSSGSPIYVKNASEVKIKSEENSFNEVIDNRNEATEDSSDDAGNAAIYATCDLKLVGKGALVVTGNYNNGIQSKDDLSIKNVIVKVTAVNNAVKVNDAVDIESGNIIAISAKGDGIKTSNSSISNKGNQKGIVTITSGNIDIYAACDGIDASYGADISGDGNLNIYTDTYSEYSEEVTSSGSSSGTSSGRDSSANKSASANTVSYVATSDTIANAPSGFGGGNMGSGNAPDMSNGNAPNMNGSSDRNKTGGNRPGMPGDFNESGNSSGQSYSTKGIKAESEINISGFTINICSTDDGIHANSDSGVLETGEDGKGTIVINGGSITISSGDDGMHADKQLDVNDGYINVVTSYEGLEAMTINLNGGKIYVYATDDGINACTGDGKTSPIVNVTGGYIDVTTTSGDTDGIDSNGNYVQTGGFVLVKGGSSSGNVSGSIDVDGTVTITGGTCVALGGVCETPVNSANAYVLGSVSFSSGSYSLKDSSGNEVISFTVDGSFSNGWICSDTLTTGSSYTLYRGADSIADWTQE
modifications: N-terminal GPLG and C-terminal PHRD
With B1, the “IL-23 production normalized to HK E. coli (set to 1.0)” value in experiment [1] worked out at 1.1. In experiment [2], the “Body weight (percent change from day 0) vs vehicle treated DSS mice” value was “significantly improved body weight”. Moreover, the “Wound healing (percent growth)” value in experiment [3] was “significant increase in growth”. Moreover, in experiment [4], the “Serum LBP concentration vs DSS mice treated with vehicle” value was “significant reduction” and the “Serum LBP concentration vs control peptide Gly2-GLP2” value is listed as “greater impact on LBP concentration”. In experiment [5], the “Colon pathology scores vs positive control Gly2-GLP2” value was “further reduced colon pathology scores significantly”. Moreover, the “Colonic pathology (total histopathology score) vs DSS” value in experiment [5] (H&E sections, readouts scored 0-4) was “significantly reduced colonic pathology”.
